From patent publication US9388450B2, “FRET based multiplex probes” (University of North Texas Health Science Center at Fort …, priority 2013, dated 2016)
Ends that are not written are not given here.

Tests used:
Type in all cases: biochemical
MMP-7 = target: T1, MMP-7 (Homo sapiens, UniProt P09237); experiment: specificity of peptide: digestion by MMP-7; conditions: peptide as substrate
T1 sequence (P09237 95-267): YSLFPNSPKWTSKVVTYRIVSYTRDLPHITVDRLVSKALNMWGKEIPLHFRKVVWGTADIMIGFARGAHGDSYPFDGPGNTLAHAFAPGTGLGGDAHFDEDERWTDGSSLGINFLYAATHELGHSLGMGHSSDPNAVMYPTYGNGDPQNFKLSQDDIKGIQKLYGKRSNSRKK
Source text: (§1) They have also shown that the peptide is very specific and is not digested by MMP-2 enzyme MMP-3 or MMP-7 enzymes. FRET sensitized fluorescence detection proves to be very effective detection approach. Similar specific peptide sequences have been developed for MMP-2, MMP-7 and more. To make highly confident assessment of various proteases activities directly in cells and tissue it is necessary to have single molecular probe capable for simultaneous analysis/detection of more than one protease. The present invention includes methods for developing and constructing a new probe that will be capable of simultaneous detection of activities of two proteases (like MMP-2 and MMP-9) at the same time and the same place by the same molecule (molecular construct). […] The probe is constructed in a way to force two sequential steps of energy transfer process. First step (FRET 1), is mediated through the cleavable linker specific to enzyme 1 (for example MMP-9) and occurs between the first energy donor and first acceptor (acceptor is a central body). Second step (FRET 2), is between the first acceptor that becomes donor to the second acceptor. The second donor and second acceptor are separated by linker specific to enzyme 2 (for example MMP-2). A highly efficient well-defined sequential FRET process offers distinctive signatures for recognizing two proteins activities. […]

MMP-3 = MMP-3 (Homo sapiens, UniProt P08254); experiment: specificity of peptide: digestion by MMP-3; conditions: peptide as substrate
Source text: as §1

MMP-9 = MMP-9 (Homo sapiens, UniProt P14780); experiment: FRET-based detection of peptide cleavage by MMP-9
Source text: Matrix metalloproteinases (MMPs) are involved in major human diseases such as cancer, AIDS, and inflammation. Therefore, sensitive detection and imaging of MMPs activities offer great clinical value to cancer detection, treatment, and therapy monitoring. Among many successful approaches that utilize peptide chemistry Förster resonance energy transfer (FRET) offers high potential for development of in-vitro and in-vivo proteases assays. Recently we developed and tested a specific peptide sequence that is a substrate for MMP-9 (Lys-Gly-Pro-Arg-Ser-Leu-Ser-Gly-Lys) (SEQ ID NO.: 3) (FIG. 4), which is cleaved into Lys-Gly-Pro-Arg-Ser (SEQ ID NO.: 4) and Leu-Ser-Gly-Lys (SEQ ID NO.: 5). Other non-limiting sequence targets can include, e.g., peptide substrates for a consensus for MMP-2 (Lys-Gly-Ser-Gly-Pro-Tyr-Val-Ile-Trp-Leu-Gly-Lys) (SEQ ID NO.: 6) (SEQ ID NO.: 7). In this approach, one end of the specific peptide was labeled with a donor and the other with an acceptor chromophore. A selective cleavage of this specific peptide sequence by MMP-9 protease results in the separation of the two segments of oligopeptide carrying the donor and acceptor and consequently leads to significant increase of donor signal and decrease in acceptor signal. A ratiometric approach allows excellent dynamic range for detection that produces an almost 60 fold change when going from intact to completely cleaved peptide.
They have also shown that the peptide is very specific and is not digested by MMP-2 enzyme MMP-3 or MMP-7 enzymes. FRET sensitized fluorescence detection proves to be very effective detection approach. Similar specific peptide sequences have been developed for MMP-2, MMP-7 and more. To make highly confident assessment of various proteases activities directly in cells and tissue it is necessary to have single molecular probe capable for simultaneous analysis/detection of more than one protease. […]

MMP-2 = target: T2, MMP-2 (Homo sapiens, UniProt P08253); experiment: specificity of peptide: digestion by MMP-2; conditions: peptide as substrate
T2 sequence (P08253 110-660): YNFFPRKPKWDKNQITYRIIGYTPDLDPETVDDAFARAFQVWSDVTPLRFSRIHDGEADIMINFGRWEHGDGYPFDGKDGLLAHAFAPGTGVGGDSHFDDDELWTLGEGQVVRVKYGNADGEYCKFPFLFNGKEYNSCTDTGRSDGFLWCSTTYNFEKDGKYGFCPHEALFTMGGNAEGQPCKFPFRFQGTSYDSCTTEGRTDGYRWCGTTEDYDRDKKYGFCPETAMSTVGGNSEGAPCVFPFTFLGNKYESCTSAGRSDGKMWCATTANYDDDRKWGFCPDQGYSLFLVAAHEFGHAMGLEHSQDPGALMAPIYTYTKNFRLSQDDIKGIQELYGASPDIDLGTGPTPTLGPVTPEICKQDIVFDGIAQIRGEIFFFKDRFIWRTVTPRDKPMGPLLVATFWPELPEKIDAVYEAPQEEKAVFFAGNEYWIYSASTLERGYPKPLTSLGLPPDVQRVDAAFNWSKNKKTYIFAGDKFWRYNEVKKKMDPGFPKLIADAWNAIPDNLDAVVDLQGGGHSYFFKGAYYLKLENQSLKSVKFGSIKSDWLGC
Source text: as §1

Sequence of MMP-9 (P14780 94-707): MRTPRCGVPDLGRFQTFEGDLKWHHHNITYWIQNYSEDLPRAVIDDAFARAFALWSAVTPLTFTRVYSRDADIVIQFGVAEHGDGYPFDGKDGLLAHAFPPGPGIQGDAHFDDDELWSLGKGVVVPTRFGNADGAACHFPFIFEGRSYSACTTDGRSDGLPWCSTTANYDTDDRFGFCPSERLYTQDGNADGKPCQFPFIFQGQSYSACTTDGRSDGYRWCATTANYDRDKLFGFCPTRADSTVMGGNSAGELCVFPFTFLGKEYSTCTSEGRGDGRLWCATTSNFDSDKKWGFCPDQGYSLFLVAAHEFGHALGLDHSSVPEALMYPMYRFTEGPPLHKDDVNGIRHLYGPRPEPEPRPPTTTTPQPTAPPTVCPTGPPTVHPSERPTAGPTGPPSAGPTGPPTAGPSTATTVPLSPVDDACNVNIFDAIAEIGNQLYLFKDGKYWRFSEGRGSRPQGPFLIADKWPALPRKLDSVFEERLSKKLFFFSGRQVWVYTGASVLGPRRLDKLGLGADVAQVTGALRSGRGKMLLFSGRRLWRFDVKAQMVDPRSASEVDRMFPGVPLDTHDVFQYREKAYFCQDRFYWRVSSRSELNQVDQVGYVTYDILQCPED
Sequence of MMP-3 (P08254 100-477): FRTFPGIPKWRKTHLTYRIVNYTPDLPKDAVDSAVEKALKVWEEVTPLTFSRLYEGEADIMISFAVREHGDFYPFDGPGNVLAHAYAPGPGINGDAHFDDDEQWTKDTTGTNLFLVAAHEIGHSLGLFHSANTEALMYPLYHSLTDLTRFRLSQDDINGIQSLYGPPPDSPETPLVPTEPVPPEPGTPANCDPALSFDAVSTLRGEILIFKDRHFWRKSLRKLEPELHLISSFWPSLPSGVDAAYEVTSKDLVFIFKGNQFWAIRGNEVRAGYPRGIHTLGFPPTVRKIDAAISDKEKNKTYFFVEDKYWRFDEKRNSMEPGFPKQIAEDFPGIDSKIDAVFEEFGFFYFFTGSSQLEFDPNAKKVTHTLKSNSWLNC

Lys-Gly-Pro-Arg-Ser-Leu-Ser-Gly-Lys (KGPRSLSGK; also: donor and acceptor labels) [labeled with donor on one end and acceptor on the other]
digestion of the peptide by MMP-7 enzyme (MMP-7): not digested
digestion of the peptide by MMP-3 enzyme (MMP-3): not digested
cleavage of the peptide by MMP-9 (MMP-9; peptide as substrate): very effectively cleaves
FRET when intact (MMP-9; peptide labeled with donor and acceptor, intact, before addition of MMP-9): > 90%
ratiometric change (donor/acceptor signal) going from intact to completely cleaved peptide (MMP-9; peptide labeled with donor on one end and acceptor on the other, cleaved by MMP-9): ~60 fold
digestion of the peptide by MMP-2 enzyme (MMP-2): not digested
